Laboratory results as given in patent US20210292393A1.
Positions count from the first letter of the chain named. Several values for one entry are separate records, joined by “and”; a condition that tells them apart may be missing. Equal entries are not always repeated.

B1: antibody 304 (antibody, V domains shown)
VH: EVQLLESGGGLVQPGGSLRLSCAASGFTFSTYAMSWVRQAPGKGLEWVSAISGSGGSTYYADSVKGRFTISRDNSKNTLYLQMNSLRAEDTAVYYCASGYSPDYWGQGTLVTVSS
VL: AIQMTQSPSSLSASVGDRVTITCRASQGIRNDLGWYQQKPGKAPKLLIYAASSLQSGVPSRFSGSGSGTDFTLTISSLQPEDFATYYCLQDYNYPRTFGQGTKVEIK
B2: antibody 259 (antibody, V domains shown)
VH: EVQLVQSGAEVKKPGATVKISCKVSGYTFTDYYMHWVQQAPGKGLEWMGLVDPEDGETIYAEKFQGRVTITADTSTDTAYMELSSLRSEDTAVYYCATDLLSWKLYCSGGSCPQMDVWGQGTTVTVSS
VL: B1 VL with A1D, L46R, D70E, D91H, Y92N, N93S, R96Q, V104L
B3: antibody 267 (antibody, V domains shown)
VH: EVHLVQSGAEMKKPGATVKISCKVSGNTFIDHYIQWVQQAPGKGFEWMGLVDPEDGETIYAEKFQGRVTITADTSRDTAYMELSSLKSEDTAVYYCGTHGDYLDYWGQGTLVTVSS
VL: FYELTQPSSVSVSPGQTALITCSGDVVAKKYARWFQQKAGQAPVLVIYKDTERPSGIPERISGSSSGTTVTLTISGAQVEDEADYYCYSATDNNLVFGGGTKVTVL
B4: antibody 270 (antibody, V domains shown)
VH: QVQLVQSGAEVKRPGTSVKVSCKTSGYTFTDHFIHWVRQAPGRRLEWMGWINPNSGGTNYAQNFQGRVTMTRDTSITTAYMDLTRLTSDDTAIYYCAREAAYGSGNLNWFDPWGQGTRVTVSS
VL: NFMLTQPHSVSESPGKTVTISCTGSSGSIAANYVHWYQQRPGSAPRTVIYEDNQRPSGVPDRFSGSIDSSSNSASLTISGLKTEDEADYYCQSYDGDSWVFGGGTKLTVL
B5: antibody 507 (antibody, V domains shown)
VH: QVQLQESGPGLVKPSGTLSLTCAVSGGSISSSNWWSWVRQPPGKGLEWIGEIYHSGNTNYNPSLKSRVTISVDKSKNQFSLKLSSVTAADTAVYYCARREWLRLFDYWGQGTLVTVSS
VL: QSALTQPASVSGSPGQSITISCTGTSSDVGSYNLVSWYQQHPGKAPKLMIYEVSKRPSGVSNRFSGSKSGNTASLTISGLQAEDEADYYCCSYAGSSTYVFGTGTKVTVL
B6: antibody 505 (antibody, V domains shown)
VH: EVQLVESGGGLVKPGGSLRLSCAASGFTFSSYSMNWVRQAPGKGLEWVSSISSSSSYIYYADSVKGRITISRDNAKNSLYLQMNSLRAEDTAVYYCAREYPNFRAEWLLSPYGMDVWGQGTTVTVSS
VL: QSALTQPASVSGSPGQSITISCTGTSSDVGSYNLVSWYQQHPGKAPKLMIYEVSKRPSGVSNRFSGSKSGNTASLTISGLQAEDEADYYCCSYAGSSTSVKVFGTGTKVTVL
B7: antibody 551 (antibody, V domains shown)
VH: EVQLVESGGGLVQPGGSLRLSCAASGFTFSSYWMSWVRQAPGKGLEWVANINQDGSDKYYVDSVKGRFTISRDNAKNSLYLQMNSLRAEDTAVYYCARAPGWAAAPTFDYWGQGTLVTVSS
VL: QSALTQPRSVSGSPGQSVTISCTGTSSDVGGYNYVSWYQQHPGKAPKFMIYDVSKRPSGVPDRFSGSKSGNTASLTISGLQAEDEADYYCCSYAGSYTLVVFGGGTKLTVL
B8: antibody 493 (antibody, V domains shown)
VH: EVQLVESGGGLIQPGRSLRLSCAASGFTVSITYMSWVRQAPGKGLEWVSLIYSGGSSYYADSVKGRFTISRDNSKNTLYLQMNSLRAEDTAVYYCATTMVRGVIISYYYGMDVWGQGTTVTVSS
VL: B5 VL with S31G, L34Y, K55N, C91S, A94T, G95S, Y99L, T103G, V107L
B9: antibody 499 (antibody, V domains shown)
VH: EVQLVESGGGLVKPGGSLRLSCAASGFTFSSYSMNWVRQAPGKGLEWVSSISSSSSYIYYADSVKGRFTISRDNAKNSLYLQMNSLRAEDTAVYYCARAPAGIVVGPDYWGQGTLVTVSS
VL: NFMLTQPHSVSESPGKTVTISCTGSSGSIASNYVQWYQQRPGSAPTTVIFEDNQRPSGVPDRFSGSIDSSSNSASLTISGLKTEDEADYYCQSYHSSNPHVVFGGGTKLTVL
B10: antibody 490 (antibody, V domains shown)
VH: QVQLQESGPGLVKPSGTLSLTCAVSGGSISSSNWWSWVRQPPGKGLEWIGELYHSGSTNYNPSLKSRVTISVDKSKNQFSLKLSSVTAADTAVYYCARVGPYYYDSSGYYNYFDYWGPGTLVTVSS
VL: EIVLTQSPATLSLSPGERATLSCRASQSVSSYLAWYQQKPGQAPRLLIYDASNRATGIPARFSGSGSGTDFTLTISSLEPEDFAVYYCQQRSNWPPGITFGQGTRLEIK
B11: antibody 495 (antibody, V domains shown)
VH: QITLKESGPTLVKPTQTLTLTCTFSGFSLSTSGVGVGWIRQPPGKALEWLALIYWDDDKRYSPSLKSRLTITKDTSKNQVVLIMTNMDPVDTATYYCAHRDSSSWFDLDAFDIWGQGTMVIVSS
VL: QSVLTQPPSVSEAPRQRVTISCSGSSSNIGNNAVNWYQQLPGKAPKLLIYYDDLLPSGVSDRFSGSKSGTSASLAISGLQSEDEADYYCAAWDDRLNGPVFGGGTKLTVL
B12: antibody 524 (antibody, V domains shown)
VH: QVQLVESGGGVVQPGRSLRLSCAASGFTFSSYAMHWVRQAPGKGLEWVAVISYDGSNKYYADSVKGRFTISRDNSKNTLYLQMNSLRAEDTAVYYCAKAGGGSYYRGFDYWGQGTLVTVSS
VL: QSVLTQPPSVSAAPGQKVTISCSGSNSNIGNNYVSWYQQLPGSAPKLLIYDNDKRPSGIPDRFSGSKSGTSATLGITGLQTGDEADYYCGAWDSSLTALVFGGGTKLTVL
B13: antibody 521 (antibody, V domains shown)
VH: QVQLVESGGGVVQPGRSLRLSCAASGFTFSSYGMHWVRQAPGKGLEWVAVIWYDGSNKYYADSVKGRFTISRDNSKNTLYLQMNSLRAEDTAVYYCAREGNDYGDYGEWELLGYFDYWGQGTLVTVSS
VL: SYELTQPPSVSVSPGQTARITCSGDALPKKYAYWYQQKSGQAPVLVIYEDSKRPSGIPERFSGSSSGTMATLTISGAQVEDEADYYCYSTDSSGNHRRVFGGGTKLTVL
B14: antibody 382 (antibody, V domains shown)
VH: QVQLVESGGGVVQPGRSLRLSCAASGFTFSNYGMHWVRQAPGKGLEWMTVISFDGRNKYYADSVKGRFTISRDNSKNTLFLQMNSLTTEDTALYFCASGRRPRYSSGWSFDYWGQGTLVTVSS
VL: DIQMTQSPSSLSASVGDRVTITCQASQDIGNYLNWYQQKLGKAPNLLIYDASNLETGVPSRFSGSGSGTDFTFTINSLQPEDTATYYCQQYDDPSITFGQGTRLEIK
B15: antibody 374 (antibody, V domains shown)
VH: QVQLQESGPGLVKPSGTLSLTCAVSGGSISSSKWWSWVRQPPGKGLEWIGEIYHSGSTNYNPSLKSRVTISVDKSKNQFSLKLSSVTAADTAVYYCARRELGEGTFTYWGQGTLVTVSS
VL: not shown
B16: antibody 383 (antibody, V domains shown)
VH: EVQLVESGGGLVQPGGSLRLSCAASGFTFSSYDMHWVRQATGKGLEWVSTIGTAGDTYYPGSVKGRFTISRENAKNSLYLQMNSLRAGDTAVYYCARVAYSSSFVYWYFDLWGRGTLVTVSS
VL: DIQMTQSPSSLSASIGDRVTITCRASQSISSYLNWYQQKPGKAPNLLIYAASSLQSGVPSRFSGSGSGTDFTLTISSLQPEDFATYYCQQSYTTPLYTFGQGTKLEIK
B17: antibody 436 (antibody, V domains shown)
VH: QVQVVESGGGVVQPGRSLRLSCAASGFTFSSYAMHWVRQAPGKGLEWVAVISYDGNNEYYVDPVKGRFTISRDNSKNTLYLQMNSLRAEDTALYYCATSREAIVVGGILDYWGQGTLVTVSS
VL: DIQMTQSPSSLSASVGDRVTITCQASHDINNFLNWYQQKPGQAPKLLIYDASNLETGVPSRFSGSGSGTDFTFTISSLHPEDVATYYCQQYDGLPRYVTFGQGTKLEIR
B18: antibody 464 (antibody, V domains shown)
VH: QVQLVQSGAEVKKPGASVKVSCKVSGYTLTELSMHWVRQAPGKGLEWMGGFDPEDGETIYAQKFQGRVTMTEDTSTDTAYMELSSLRSEDTAVYYCATARAFGVANWFDPWGQGTLVTVSS
VL: QSVLTQPPSASGTPGQRVTISCSGSSSNIGSNYVYWYQQLPGTAPKLLIYRNNQRPSGVPDRFSGSKSGTSASLAISGLRSEDEADYYCAAWDDSLSGLYVFGTGTKVTVL

What follows are binders tested against SARS-CoV-2 full length spike protein (wild type) (SARS-CoV-2), P0DTC2 (assay: not given). Details: remark: other sources report otherwise.

B1 was tested, and the binding signal, bead assay (fold over isotype) was 1.22 and 1.17 and 1.09.

Compared with B2, B3 is higher in binding signal, bead assay (fold over isotype): 275 for the first, 312 for the second.

With B4 the binding signal, bead assay (fold over isotype) was 305.

The binders below were run against SARS-CoV-2 full length spike protein (wild-type), conjugated to optically encoded beads (SARS-CoV-2), P0DTC2 (assay: not given). Details: remark: other sources report otherwise.

First: B5
Second: B6
The median fluorescence fold over isotype (fold over isotype) of the first is lower: 571 for the first, 658 for the second.

B7 gave a median fluorescence fold over isotype (fold over isotype) of 649.

These binders were tested against SARS-CoV-2 full length spike protein, wild type, expressed on the surface of CHO cells (SARS-CoV-2), P0DTC2 (assay: not given). Details: remark: other sources report otherwise.

In the case of B8, the median fluorescence fold over isotype control (fold over isotype) is reported as 1.26 and 1.1.
In the case of B9, the median fluorescence fold over isotype control (fold over isotype) is reported as 1.35 and 0.9.
For B10, the median fluorescence fold over isotype control (fold over isotype) was 1.07 and 1.28 and 1.08.
B11 was tested, and the median fluorescence fold over isotype control (fold over isotype) was 1.23 and 0.83.
In the case of B12, the median fluorescence fold over isotype control (fold over isotype) is reported as 0.58 and 0.55.
With B13 the median fluorescence fold over isotype control (fold over isotype) was 2.42 and 0.86.

First: B5
Second: B6
The median fluorescence fold over isotype control (fold over isotype) of the first is lower: 1.51 for the first, 1.55 for the second.

Each binder was assayed against SARS-CoV-2 spike (S) protein (SARS-CoV-2), P0DTC2 (assay: not given). Details: remark: other sources report otherwise.

Going from B14 to B1, the Kd falls from 11.2 nM to 3.14 nM (3.6-fold). The second binds more tightly here.

Going from B15 to B16, the Kd falls from 1.58 nM to 0.772 nM (2-fold).

Compared with B14, B1 is 4.9-fold lower in koff: 0.00134 s⁻¹ for the first, 0.000274 s⁻¹ for the second.

B15 and B16 are within 1.5-fold of each other in koff: 7.86e-05 s⁻¹ for the first, 7.09e-05 s⁻¹ for the second.

B14 and B1 are within 1.5-fold of each other in kon: 120000 M⁻¹ s⁻¹ for the first, 87300 M⁻¹ s⁻¹ for the second.

First: B15
Second: B16
The kon of the first is 1.9-fold lower: 49600 M⁻¹ s⁻¹ for the first, 91800 M⁻¹ s⁻¹ for the second.

The binders below were run against SARS-CoV-2 spike protein (SARS-CoV-2), P0DTC2 (assay: not given). Details: remark: other sources report otherwise.

Compared with B17, B18 is 4.2-fold lower in Kd: 19.4 nM for the first, 4.58 nM for the second.

B17 and B18 are within 1.5-fold of each other in koff: 0.000352 s⁻¹ for the first, 0.000512 s⁻¹ for the second.

First: B17
Second: B18
The kon of the first is 6.2-fold lower: 18200 M⁻¹ s⁻¹ for the first, 112000 M⁻¹ s⁻¹ for the second.

What follows are binders tested against SARS-CoV-2 spike protein (SARS-CoV-2), P0DTC2 (assay: HT-SPR, Carterra LSA; mAb coupled to chip, antigen injected; 1:1 fit). Details: remark: other sources report otherwise.

Going from B8 to B9, the Kd rises from less than 0.133 nM to 0.297 nM.

Going from B11 to B12, the Kd rises from 0.0718 nM to 34.6 nM (480-fold).

B13 gave a Kd of 9.9 nM.

Going from B8 to B9, the koff rises from less than 1e-05 s⁻¹ to 1.88e-05 s⁻¹.

Going from B11 to B12, the koff rises from 1.55e-05 s⁻¹ to 0.00272 s⁻¹ (180-fold).

For B13, the koff was 0.000299 s⁻¹.

First: B9
Second: B11
The kon of the first is 3.4-fold lower: 63300 M⁻¹ s⁻¹ for the first, 216000 M⁻¹ s⁻¹ for the second.

Going from B12 to B13, the kon falls from 78600 M⁻¹ s⁻¹ to 30200 M⁻¹ s⁻¹ (2.6-fold).
